This experiment deals with Collagen I. Description: ELISA; cytokine coated, ECM protein 0.02 to 320 nM, KD by non-linear fit. For orientation: In an ELISA, binding on a coated surface is turned into a signal by an enzyme label.
Collagen I, sequence (P02452 162-1218, chain 1 of 2): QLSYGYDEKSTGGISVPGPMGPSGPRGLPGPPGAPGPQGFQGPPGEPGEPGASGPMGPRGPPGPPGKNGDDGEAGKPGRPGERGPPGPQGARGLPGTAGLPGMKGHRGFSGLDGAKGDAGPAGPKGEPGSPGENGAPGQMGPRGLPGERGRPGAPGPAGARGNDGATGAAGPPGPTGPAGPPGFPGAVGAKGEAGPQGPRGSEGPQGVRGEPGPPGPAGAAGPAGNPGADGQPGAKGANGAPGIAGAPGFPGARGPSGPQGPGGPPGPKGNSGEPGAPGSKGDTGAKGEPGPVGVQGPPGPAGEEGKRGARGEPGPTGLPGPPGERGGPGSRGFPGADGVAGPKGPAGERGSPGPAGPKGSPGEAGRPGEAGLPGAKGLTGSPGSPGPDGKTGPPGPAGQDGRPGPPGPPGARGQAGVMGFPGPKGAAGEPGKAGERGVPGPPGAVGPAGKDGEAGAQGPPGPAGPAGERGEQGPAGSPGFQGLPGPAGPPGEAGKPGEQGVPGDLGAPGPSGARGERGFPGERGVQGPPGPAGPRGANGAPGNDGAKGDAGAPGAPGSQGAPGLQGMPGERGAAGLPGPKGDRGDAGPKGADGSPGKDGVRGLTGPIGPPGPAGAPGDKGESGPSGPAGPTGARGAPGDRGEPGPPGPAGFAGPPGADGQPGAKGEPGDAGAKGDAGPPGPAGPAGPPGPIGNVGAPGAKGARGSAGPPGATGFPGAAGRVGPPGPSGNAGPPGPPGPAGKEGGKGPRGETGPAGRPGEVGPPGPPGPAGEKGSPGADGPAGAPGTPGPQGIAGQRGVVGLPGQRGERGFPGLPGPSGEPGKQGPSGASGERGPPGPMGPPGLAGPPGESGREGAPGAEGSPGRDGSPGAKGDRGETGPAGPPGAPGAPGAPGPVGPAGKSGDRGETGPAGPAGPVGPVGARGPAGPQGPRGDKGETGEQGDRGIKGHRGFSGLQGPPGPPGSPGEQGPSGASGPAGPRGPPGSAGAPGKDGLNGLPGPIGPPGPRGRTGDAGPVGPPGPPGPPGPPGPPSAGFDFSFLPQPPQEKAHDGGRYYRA
Collagen I, sequence (P08123 80-1119, chain 2 of 2, further chain): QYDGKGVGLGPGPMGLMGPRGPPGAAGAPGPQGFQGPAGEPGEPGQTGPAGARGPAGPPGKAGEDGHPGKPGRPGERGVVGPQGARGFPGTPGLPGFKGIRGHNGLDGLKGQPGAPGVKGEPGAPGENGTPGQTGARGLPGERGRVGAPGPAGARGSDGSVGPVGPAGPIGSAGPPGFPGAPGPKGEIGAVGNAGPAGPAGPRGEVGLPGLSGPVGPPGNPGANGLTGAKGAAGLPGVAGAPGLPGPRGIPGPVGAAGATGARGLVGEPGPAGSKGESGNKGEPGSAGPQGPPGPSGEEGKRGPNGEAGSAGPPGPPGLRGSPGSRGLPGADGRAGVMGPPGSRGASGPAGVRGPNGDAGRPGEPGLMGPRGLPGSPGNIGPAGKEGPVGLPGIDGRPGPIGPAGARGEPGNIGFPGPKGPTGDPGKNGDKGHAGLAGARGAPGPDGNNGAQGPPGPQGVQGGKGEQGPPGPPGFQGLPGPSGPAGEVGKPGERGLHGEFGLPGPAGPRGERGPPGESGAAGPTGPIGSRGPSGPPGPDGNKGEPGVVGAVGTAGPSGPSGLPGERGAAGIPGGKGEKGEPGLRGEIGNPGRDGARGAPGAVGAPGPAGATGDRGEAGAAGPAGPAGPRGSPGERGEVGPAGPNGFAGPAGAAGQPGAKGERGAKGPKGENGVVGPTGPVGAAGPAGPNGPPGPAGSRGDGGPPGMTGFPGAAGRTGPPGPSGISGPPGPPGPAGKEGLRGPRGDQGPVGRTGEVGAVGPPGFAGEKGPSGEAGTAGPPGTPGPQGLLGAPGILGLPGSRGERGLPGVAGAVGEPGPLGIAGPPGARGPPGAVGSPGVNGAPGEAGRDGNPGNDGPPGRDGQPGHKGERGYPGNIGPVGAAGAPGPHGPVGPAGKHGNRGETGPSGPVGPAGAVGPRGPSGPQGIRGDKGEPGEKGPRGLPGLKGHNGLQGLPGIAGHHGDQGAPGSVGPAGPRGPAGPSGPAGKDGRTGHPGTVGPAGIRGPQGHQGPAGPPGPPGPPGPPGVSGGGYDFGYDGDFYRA

B1: PlGF2 (ligand)
chain: PAVPPQQWALSAGNGSSEVEVVPFQEVWGRSYCRALERLVDVVSEYPSEVEHMFSPSCVSLLRCTGCCGDENLHCVPVETANVTMQLLKIRSGDRPSYVELTFSQHVRCECRPLREKMKPERRRPKRGKRRREKQRPTDCHLCGDAVPRR
notes: also called PIGF-2; placenta growth factor 2
As a reminder, the Kd is the constant that tells how readily two partners part at equilibrium. The low end stands for a tighter complex, the high end for a looser complex. On to B1, for which the Kd stood at 126 nM.

B2: human PDGF-BB-PlGF2123-144 (ligand)
chain: SLGSLTIAEPAMIAECKTRTEVFEISRRLIDRTNANFLVWPPCVEVQRCSGCCNNRNVQCRPTQVQLRPVQVRKIEIVRKKPIFKKATVTLEDHLACKCETVAAARPVTRRRPKGRGKRRREKQRPTDCHL
For the molecule B2, binding was characterised by a dissociation constant (Kd) of 96.3 nM.

B3: human BMP-2-PlGF2123-144* (ligand)
chain: QAKHKQRKRLKSSCKRHPLYVDFSDVGWNDWIVAPPGYHAFYCHGECPFPLADHLNSTNHAIVQTLVNSVNSKIPKACCVPTELSAISMLYLDENEKVVLKNYQDMVVEGCGCRRRPKGRGKRRREKQRPTDSHL
notes: Inserted at the C-terminus of BMP-2
B3 had a Kd of 102 nM.

B4: human VEGF-A121-PlGF2123-144 (ligand)
chain: APMAEGGGQNHHEVVKFMDVYQRSYCHPIETLVDIFQEYPDEIEYIFKPSCVPLMRCGGCCNDEGLECVPTEESNITMQIMRIKPHQGQHIGEMSFLQHNKCECRPKKDRARQERRRPKGRGKRRREKQRPTDCHLCDKPRR
The molecule B4 had a Kd of 124 nM.

The values above are taken from patent US20140010832A1 (EPFL TTO, published 2014).
